T1: membrane-bound human RGMc (human, UniProt Q6ZVN8 36-400)
T1 sequence: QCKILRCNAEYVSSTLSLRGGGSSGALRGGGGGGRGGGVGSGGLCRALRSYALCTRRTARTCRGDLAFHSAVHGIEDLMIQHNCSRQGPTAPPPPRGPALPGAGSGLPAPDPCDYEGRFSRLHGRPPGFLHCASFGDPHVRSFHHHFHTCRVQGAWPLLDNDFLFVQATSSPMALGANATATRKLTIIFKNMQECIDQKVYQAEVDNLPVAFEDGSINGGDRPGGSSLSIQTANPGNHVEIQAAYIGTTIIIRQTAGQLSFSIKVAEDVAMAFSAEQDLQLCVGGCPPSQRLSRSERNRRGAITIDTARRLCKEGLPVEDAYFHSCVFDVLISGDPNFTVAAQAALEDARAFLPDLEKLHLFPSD

T2: membrane-bound human RGMa (human, UniProt Q96B86 169-424)
T2 sequence (looked up): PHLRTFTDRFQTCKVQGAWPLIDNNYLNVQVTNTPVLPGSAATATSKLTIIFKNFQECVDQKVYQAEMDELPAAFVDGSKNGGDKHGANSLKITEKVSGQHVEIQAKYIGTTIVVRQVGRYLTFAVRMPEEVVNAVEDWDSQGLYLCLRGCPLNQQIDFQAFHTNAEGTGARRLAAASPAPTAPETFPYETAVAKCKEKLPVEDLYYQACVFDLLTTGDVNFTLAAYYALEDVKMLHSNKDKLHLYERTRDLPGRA


Tests used:
Experiment in all cases: cell-based or functional assay
[1] = biological target: T1, membrane-bound human RGMc
[2] = biological target: T1, membrane-bound human RGMc; remark: listed apart in the source
[3] = biological target: T2, membrane-bound human RGMa

IC50 (nM), BMP reporter assay for RGMc [1] [nM] | Potency on membrane hRGMc (RGMc/BMP reporter assay) IC50 [2] [nM] | Potency on membrane hRGMa (RGMa/BMP reporter assay) IC50 [3] [nM] | Binder
0.377 | 0.37 |  | hHA-008 (antibody, human IgG1, kappa, L234A L235A) heavy: not shown light: DVVLTQSPLSLPVTLGQPASISCRSSQSLEESDGYTFLHWFQQRPGQSPRLLIYEVSTRFSGVPDRFSGSGSGTDFTLKISRVEAEDVGVYYCFQATHDPLTFGQGTKLEIKRTVAAPSVFIFPPSDEQLKSGTASVVCLLNNFYPREAKVQWKVDNALQSGNSQESVTEQDSKDSTYSLSSTLTLSKADYEKHKVYACEVTHQGLSSPVTKSFNRGEC
1.36 | 1.36 |  | hHA-009 (antibody, human IgG1, kappa, L234A L235A, V domains shown) VH: EVQLVESGGGLVQPGGSLRLSCAASGFTFSNYGMNWVRQAPGKGLEWIGMIYYDSSEKHYADSVKGRFTISRDNSKNTLYLQMNSLRAEDTAVYYCAKGTTPDYWGQGTMVTVSS VL: DVVLTQSPLSLPVTLGQPASISCRSSQSLADSDGDTFLHWFQQRPGQSPRLLIYAVSHRFSGVPDRFSGSGSGTDFTLKISRVEAEDVGVYYCFQATHDPVTFGQGTKLEIKR
0.312 | 0.31 | 2 | hHA-004 (antibody, human IgG1, kappa, L234A L235A, V domains shown) VH: EVQLVESGGGLVQPGGSLRLSCAASGFTFSNYGMNWIRQAPGKGLEWIGMIYYDSSEKHYADSVKGRFTISRDNSKNTLYLQMNSLRAEDTAVYYCAKGTTPDYWGQGTMVTVSS VL: DVVLTQSPLSLPVTLGQPASISCRSSQSLESSDGDTFLEWFQQRPGQSPRLLIYDVSTRFSGVPDRFSGSGSGTDFTLKISRVEAEDVGVYYCFQVTHDPVTFGQGTKLEIKR
0.0554 | 0.52 | 1.7 | hHA-011 (antibody, human IgG1, kappa, L234A L235A, V domains shown) VH: EVQLVESGGGLVQPGGSLRLSCAASGFTFSNYGMNWVRQAPGKGLEWIGMIYYDSSEKHYADSVKGRFTISRDNSKNTLYLQMNSLRAEDTAVYYCAKGSTPDYWGQGTMVTVSS VL: DVVLTQSPLSLPVTLGQPASISCRSSQSLEDSDGGTFLEWFQQRPGQSPRLLIYDVSSRFSGVPDRFSGSGSGTDFTLKISRVEAEDVGVYYCFQATHDPLSFGQGTKLEIKR

Reference: patent publication US20260098088A1 (DISC MEDICINE, published 2026)
